US12365732 (23ANDME, dated 2025)

T1: hu-CD96 (soluble, isoform 2 extracellular domain) (human, UniProt P40200 22-516, biotinylated in Octet and blocking ELISA)
T1 construct: the assays name only hu-CD96; also called hCD96; biotinylated hu-CD96
T1 sequence: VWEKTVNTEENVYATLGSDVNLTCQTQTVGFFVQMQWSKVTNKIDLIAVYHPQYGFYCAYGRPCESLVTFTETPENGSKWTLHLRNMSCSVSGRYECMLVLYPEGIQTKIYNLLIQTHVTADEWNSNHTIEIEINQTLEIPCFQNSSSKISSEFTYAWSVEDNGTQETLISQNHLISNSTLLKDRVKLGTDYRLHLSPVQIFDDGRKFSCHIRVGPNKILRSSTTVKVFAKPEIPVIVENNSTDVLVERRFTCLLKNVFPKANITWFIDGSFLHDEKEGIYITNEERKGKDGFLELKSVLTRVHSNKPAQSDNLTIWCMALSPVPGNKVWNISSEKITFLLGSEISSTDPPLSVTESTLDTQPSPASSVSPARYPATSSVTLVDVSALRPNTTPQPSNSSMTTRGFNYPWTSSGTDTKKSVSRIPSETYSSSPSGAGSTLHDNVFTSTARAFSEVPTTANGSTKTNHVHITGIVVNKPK


Key:
[1] = target: T1, hu-CD96 (soluble, isoform 2 …); assay: BLI (Octet), biotin-CD96 on SA, Fab analyte
Description: The binding affinity of the generated Fab variants of mAb1.v7 for hu-CD96 and cy-CD96 was determined by OCTET (Pall ForteBio) Bio-Layer Interferometry (BLI) binding analysis. The biotinylated hu-CD96 or biotinylated cy-CD96 was diluted to a final concentration 10 µg/mL in experimental buffer (PBS buffer with 0.01% Tween-20) and immobilized on the Streptavidin Capture (SA) biosensors (Pall ForteBio). Three-fold serial dilutions of the mAb1.v7 Fab variants starting at 1 µM as analytes were diluted in the experimental buffer (PBS buffer with 0.01% Tween-20). The biosensors were equilibrated in experimental buffer at 30° C. for ten minutes prior to starting the experiment. The kinetics experiment was performed with the following steps, where the step name, solution and time are listed: Baseline (buffer—60 seconds), Loading (biotinylated antigen—200 seconds), Baseline 2 (buffer—minimum 120 seconds), Association (analyte—200-300 seconds) and Dissociation (buffer—1000 seconds). The resulting BLI signal from analyte association and dissociation from the […] was analyzed using the Octet Data Analysis software (Pall ForteBio). First a reference subtraction was performed on all recorded traces using the reference well (biosensor that underwent same steps as experimental wells but no analyte for the Association step) and then all the traces were aligned to the beginning of the Association step. The entirety of the Association and Dissociation steps were used in a Global fit (minimum of four analyte concentration traces) in a 1:1 binding model to calculate the K_D values for the 16 selected individual mAb1.v7 Fab variants as summarized in Table 9 (below).

[2] = target: T1, hu-CD96 (soluble, isoform 2 …); assay: ELISA, blocks biotin-CD96 binding to coated hu-CD155-mFc
Description: The selected 5 affinity matured Fab variants of mAb1.v7 Fab were assayed for blocking of human CD155 (hu-CD155) receptor by ELISA as follows. Briefly, 96-well MAXISORP® flat bottom plates (Thermofisher, Cat #439454) were coated overnight at 4° C. with 2 µg/mL goat anti-mouse Fc (Thermofisher, Cat #31168) in PBS. After removing the coating solution, unspecific binding was blocked with PBS containing 1% bovine serum albumin (BSA) and incubation at room temperature for one hour. Plates were then washed five times in PBS with 0.05% TWEEN®-20 (wash buffer) and added […] hu-CD155-mFc in PBS for 1 hour in room temperature. During blocking period, 50 µL/well of 4 nM biotinylated hu-CD96 or 40 nM biotinylated cy-CD96 with serial dilution of the Fab variants 50 µL/well (starting at 2 µM, 1:3 dilution) for two hours at room temperature with PBS containing 0.5% BSA and 0.05% Tween 20 (ELISA buffer) in NUNC F plate (Thermofisher, Cat #269620). Then transferred the antigen-antibody mix solution 80 µL/well into hu-CD155-mFc coated wells at room temperature for 15 min. Plates were then washed with wash buffer to which was added 50 µL/well Streptavidin poly-HRP (Thermofisher, Cat #21140) diluted 1:5000 in ELISA buffer at room temperature for one hour with agitation. […] Enzymatic color development was stopped with 50 µL/well of TMB stop solution (VWR, Cat #95059-200). Plates were analyzed with a SpectraMax i3X plate reader (Molecular Devices) at 450 nm. […] The blocking $IC50$ values for the mAbv1.7 and the 5 selected affinity matured Fab variants (mAb1.v7.2, mAb1.v7.9, mAb1.v7.16, mAb1.v7.48, mAb1.v7.70) are summarized in Table 10 (above).

[3] = target: T1, hu-CD96 (soluble, isoform 2 …); assay: phage competition ELISA, soluble CD96 vs coated hu-CD96
Description: 192 colonies from most stringent selections (biotinylated 0.1 nM of hu-CD96 or cy-CD96 with 1000× non-biotinylated human or cy-CD96) were grown in 400 µL 2YT with 4 µL helper phage M13KO7 overnight at 37° C. with shaking. After spinning down the pellet, the phage supernatant was diluted 1:1 with 2 nM hu-CD96, 20 nM cy-CD96 and ELISA buffer (0.5% BSA and 0.05% TWEEN®20 in PBS) in total […] and incubated for two hours at room temperature with agitation. The […] of mixture was transferred to hu-CD96 coated plate for 15 min to capture unbound phage. The plate was washed with wash buffer (0.05% TWEEN®20 in PBS), and HRP-conjugated anti-M13 antibody (Sino biological, Cat #11973-MM05-H-50) was added in ELISA buffer for 30 min. […] Enzymatic color development was stopped using TMB stop solution (VWR, Cat #95059-200). Plates were analyzed with a SpectraMax i3X plate reader (Molecular Devices). The % inhibition was calculated by the $OD450$ of wells with hu-CD96/cy-CD96 competitor divided by $OD450$ of wells with buffer alone. The lower % inhibition indicated higher phage $IC50$ against hu-CD96 or cy-CD96.
Selected top inhibition % phage variants from single spot competition were purified from culture supernatants. The optimal phage concentration was incubated with serially-diluted hu-CD96 or cy-CD96 in ELISA buffer in NUNC F plate for two hours. The […] of the mixture was transferred to hu-CD96 coated wells for 15 min to capture unbound phage. The plate was washed with wash buffer (0.05% TWEEN®20 in PBS), and HRP-conjugated anti-M13 antibody (Sino biological, Cat #11973-MM05-H-50) was added in ELISA buffer for 30 min. The plates were washed and developed as described above. The absorbance at 450 nm was plotted as a function of antigen concentration in solution to determine phage $IC50$.

Row | Binder | apparent Kd (pooled screen) [1] | apparent IC50 (pooled screen) [2] | apparent IC50 (pooled screen) [3] | Kd [1] | IC50 [2] | IC50 [3]
1 | mAb1.v7 Fab (Fab, V domains shown) VH: EVQLVQSGAEVKKPGASVKVSCKASGFTFTNNWMHWVRQAPGQGLEWIGMIHPNSGITNINEKFKNRVTMTTDTSTSTAYMELRSLRSEDTAVYYCRSDGTYEGYFDYWGQGTLVTVSS VL: DIQLTQSPSSLSASVGDRVTITCKASQNVGTAIVWYQQKPGKAPKVLIYSASTRYTGVPSRFSGSGSGTDFTLTISSLQPEDFATYYCQQYSSSPLTFGQGTKVEIK | 76000 pM | 740 pM | 500 pM | – | – | –
2 | mAb1.v7.2 Fab (Fab, V domains shown, also called M34R/P52aF/T97V) VH: EVQLVQSGAEVKKPGASVKVSCKASGFTFTNNWRHWVRQAPGQGLEWIGMIHFNSGITNINEKFKNRVTMTTDTSTSTAYMELRSLRSEDTAVYYCRSDGVYEGYFDYWGQGTLVTVSS VL: DIQLTQSPSSLSASVGDRVTITCKASQNVGTAIVWYQQKPGKAPKVLIYSASTRYTGVPSRFSGSGSGTDFTLTISSLQPEDFATYYCQQYSSSPLTFGQGTKVEIK | – | – | – | 3750 pM | 700 pM | 80 pM
3 | mAb1.v7.9 Fab (Fab, V domains shown, also called M34R/P52aM/T97V) VH: EVQLVQSGAEVKKPGASVKVSCKASGFTFTNNWRHWVRQAPGQGLEWIGMIHMNSGITNINEKFKNRVTMTTDTSTSTAYMELRSLRSEDTAVYYCRSDGVYEGYFDYWGQGTLVTVSS VL: DIQLTQSPSSLSASVGDRVTITCKASQNVGTAIVWYQQKPGKAPKVLIYSASTRYTGVPSRFSGSGSGTDFTLTISSLQPEDFATYYCQQYSSSPLTFGQGTKVEIK | – | – | – | ~100 pM | 420 pM | 110 pM
4 | mAb1.v7.70 Fab (Fab, V domains shown, also called N32R/P52aA/T97V) VH: EVQLVQSGAEVKKPGASVKVSCKASGFTFTNRWMHWVRQAPGQGLEWIGMIHANSGITNINEKFKNRVTMTTDTSTSTAYMELRSLRSEDTAVYYCRSDGVYEGYFDYWGQGTLVTVSS VL: DIQLTQSPSSLSASVGDRVTITCKASQNVGTAIVWYQQKPGKAPKVLIYSASTRYTGVPSRFSGSGSGTDFTLTISSLQPEDFATYYCQQYSSSPLTFGQGTKVEIK | – | – | – | ~100 pM | 800 pM | 140 pM

More lines, in order of falling Kd [1], values ahead:

Row | apparent Kd (pooled screen) [1] | apparent IC50 (pooled screen) [2] | apparent IC50 (pooled screen) [3] | Kd [1] | IC50 [2] | IC50 [3] | Binder
5 | – | – | – | 1400 pM | 800 pM | 100 pM | mAb1.v7.16 Fab (Fab, V domains shown, also called M34R/T97V) VH: EVQLVQSGAEVKKPGASVKVSCKASGFTFTNNWRHWVRQAPGQGLEWIGMIHPNSGITNINEKFKNRVTMTTDTSTSTAYMELRSLRSEDTAVYYCRSDGVYEGYFDYWGQGTLVTVSS VL: DIQLTQSPSSLSASVGDRVTITCKASQNVGTAIVWYQQKPGKAPKVLIYSASTRYTGVPSRFSGSGSGTDFTLTISSLQPEDFATYYCQQYSSSPLTFGQGTKVEIK
6 | – | – | – | ~100 pM | 420 pM | 100 pM | mAb1.v7.48 Fab (Fab, V domains shown, also called N32R/P52aH/T97V) VH: EVQLVQSGAEVKKPGASVKVSCKASGFTFTNRWMHWVRQAPGQGLEWIGMIHHNSGITNINEKFKNRVTMTTDTSTSTAYMELRSLRSEDTAVYYCRSDGVYEGYFDYWGQGTLVTVSS VL: DIQLTQSPSSLSASVGDRVTITCKASQNVGTAIVWYQQKPGKAPKVLIYSASTRYTGVPSRFSGSGSGTDFTLTISSLQPEDFATYYCQQYSSSPLTFGQGTKVEIK
